Key:
[1] = biological target: human serum albumin (human) (UniProt P02768); test: SPR, albumin on chip, 1:1 interaction model
[2] = biological target: mouse serum albumin (mouse) (UniProt P07724); test: SPR, albumin on chip, 1:1 interaction model
[3] = biological target: cyno serum albumin (cyno); test: SPR, albumin on chip, 1:1 interaction model
[4] = biological target: human serum albumin (human) (UniProt P02768); test: SPR, albumin on CM5 chip, multicycle kinetics
[5] = biological target: mouse serum albumin (mouse) (UniProt P07724); test: SPR, albumin on CM5 chip, multicycle kinetics
[6] = biological target: cyno serum albumin (cyno); test: SPR, albumin on CM5 chip, multicycle kinetics
mAng2 [7] = test: competition ELISA, blocking of mAng2 binding to mTie2-Fc
Chain of mAng2 (chain, as listed by the source limits assumed): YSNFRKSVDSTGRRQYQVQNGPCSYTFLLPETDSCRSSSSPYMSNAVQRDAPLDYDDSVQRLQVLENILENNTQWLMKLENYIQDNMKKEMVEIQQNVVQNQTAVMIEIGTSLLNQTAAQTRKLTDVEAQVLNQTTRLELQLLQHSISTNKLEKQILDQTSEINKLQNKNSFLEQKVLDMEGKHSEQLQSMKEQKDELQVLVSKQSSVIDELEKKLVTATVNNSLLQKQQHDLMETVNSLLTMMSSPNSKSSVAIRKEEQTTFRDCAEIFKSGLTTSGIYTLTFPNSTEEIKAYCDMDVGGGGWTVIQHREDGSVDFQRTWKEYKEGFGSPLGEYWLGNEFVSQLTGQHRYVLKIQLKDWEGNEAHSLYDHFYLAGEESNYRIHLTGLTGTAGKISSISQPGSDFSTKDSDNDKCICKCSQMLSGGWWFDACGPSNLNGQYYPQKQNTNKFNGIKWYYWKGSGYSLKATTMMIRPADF

hAng2 [8] = biological target: hAng2
Chain of hAng2 (chain, as listed by the source limits assumed): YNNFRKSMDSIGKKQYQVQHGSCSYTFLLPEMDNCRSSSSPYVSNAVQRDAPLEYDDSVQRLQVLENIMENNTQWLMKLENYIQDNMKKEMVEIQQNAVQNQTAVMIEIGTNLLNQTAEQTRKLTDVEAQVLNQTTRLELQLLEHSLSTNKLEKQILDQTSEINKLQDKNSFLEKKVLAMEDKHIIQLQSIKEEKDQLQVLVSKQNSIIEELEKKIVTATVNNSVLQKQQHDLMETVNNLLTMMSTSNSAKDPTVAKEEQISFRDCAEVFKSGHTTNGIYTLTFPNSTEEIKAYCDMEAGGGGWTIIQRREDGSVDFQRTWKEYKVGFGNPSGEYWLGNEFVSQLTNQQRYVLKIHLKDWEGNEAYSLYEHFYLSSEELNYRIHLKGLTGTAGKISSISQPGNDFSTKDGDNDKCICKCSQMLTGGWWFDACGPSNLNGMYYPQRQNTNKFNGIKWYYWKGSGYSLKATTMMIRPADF

mAng2 [9] = test: competition ELISA, blocking of mAng2 binding to mTie2
hAng2 [10] = test: competition ELISA hAng2/hTie2-Fc; blocked: hTie2-Fc
hAng2 [11] = test: competition ELISA, blocking of hAng2 binding to hTie2-Fc
hAng2 [12] = test: competition ELISA, blocking of hAng2 binding to hTie2
[13] = biological target: cAng2 (cynomolgus monkey); test: competition ELISA, blocking of cAng2 binding to cTie2
[14] = biological target: cAng2 (cynomolgus monkey); test: as above; remark: listed apart in the source
mAng2 [15] = test: competition ELISA mAng2/mTie2-Fc; blocked: mTie2-Fc
hAng2 [16] = test: competition ELISA, blocking of hAng2 binding to hTie2; remark: listed apart in the source
hAng2 [17] = test: competition ELISA hAng2/hTie2-Fc; blocked: hTie2-Fc; remark: listed apart in the source
[18] = biological target: cAng2 (cynomolgus monkey); test: competition ELISA, blocking of cAng2 binding to cTie2; remark: listed apart in the source
[19] = biological target: cAng2 (cynomolgus monkey); test: competition ELISA, blocking of cAng2 binding to cTie2-Fc
mAng2 [20] = test: competition ELISA, blocking of mAng2 binding to mTie2; remark: listed apart in the source
mAng2 [21] = test: competition ELISA mAng2/mTie2-Fc; blocked: mTie2-Fc; remark: listed apart in the source
hAng2 [22] = test: competition ELISA hAng2/hTie2-Fc; blocked: hTie2-Fc; remark: listed apart in the source
mAng2 [23] = test: competition ELISA, blocking of mAng2 binding to mTie2; remark: listed apart in the source
hAng2 [24] = test: competition ELISA, blocking of hAng2 binding to hTie2-Fc; remark: listed apart in the source
hAng2 [25] = test: as above; remark: listed apart in the source
hAng2 [26] = test: competition ELISA, blocking of hAng2 binding to hTie2; remark: listed apart in the source

Chain of cyno serum albumin (cyno) (A2V9Z4 25-608): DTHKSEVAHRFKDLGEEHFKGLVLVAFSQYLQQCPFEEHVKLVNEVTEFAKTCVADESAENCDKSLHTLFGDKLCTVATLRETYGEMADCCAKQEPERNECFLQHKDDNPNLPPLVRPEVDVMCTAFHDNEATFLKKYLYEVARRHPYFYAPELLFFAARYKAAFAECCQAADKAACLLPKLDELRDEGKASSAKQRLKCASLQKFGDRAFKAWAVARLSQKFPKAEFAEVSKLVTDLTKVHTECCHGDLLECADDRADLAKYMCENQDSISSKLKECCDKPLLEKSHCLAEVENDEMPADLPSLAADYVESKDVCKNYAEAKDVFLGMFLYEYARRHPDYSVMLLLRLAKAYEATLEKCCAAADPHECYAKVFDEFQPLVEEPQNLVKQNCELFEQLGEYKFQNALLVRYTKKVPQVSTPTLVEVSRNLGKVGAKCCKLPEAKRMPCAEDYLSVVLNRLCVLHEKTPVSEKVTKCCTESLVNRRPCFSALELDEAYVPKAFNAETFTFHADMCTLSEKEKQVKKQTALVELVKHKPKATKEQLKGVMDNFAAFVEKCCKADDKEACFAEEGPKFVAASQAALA
Chain of mouse serum albumin (mouse) (P07724 25-608 limits assumed): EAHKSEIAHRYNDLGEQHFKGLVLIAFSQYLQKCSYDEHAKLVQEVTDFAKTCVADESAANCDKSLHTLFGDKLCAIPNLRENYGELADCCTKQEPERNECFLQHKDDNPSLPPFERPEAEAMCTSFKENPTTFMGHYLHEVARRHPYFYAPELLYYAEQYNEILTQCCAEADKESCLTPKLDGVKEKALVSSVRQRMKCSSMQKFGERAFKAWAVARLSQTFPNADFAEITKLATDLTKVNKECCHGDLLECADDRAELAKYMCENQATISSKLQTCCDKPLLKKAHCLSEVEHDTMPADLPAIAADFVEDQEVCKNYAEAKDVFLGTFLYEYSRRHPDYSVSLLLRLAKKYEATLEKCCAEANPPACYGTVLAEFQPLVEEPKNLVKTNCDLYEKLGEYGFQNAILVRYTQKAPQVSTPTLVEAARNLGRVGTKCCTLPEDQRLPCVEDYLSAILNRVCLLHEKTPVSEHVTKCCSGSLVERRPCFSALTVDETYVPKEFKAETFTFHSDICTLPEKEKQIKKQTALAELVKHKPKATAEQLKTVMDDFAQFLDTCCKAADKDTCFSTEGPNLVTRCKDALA

Substance: ALB11 (VHH)
- Kd [1]: 4000 pM
- koff [1]: 0.0019 s⁻¹
- Kd [2]: 51000 pM
- koff [2]: 0.03 s⁻¹
- Kd [3]: 4000 pM
- Kd [4]: 4000 pM
- koff [4]: 0.0018 s⁻¹
- Kd [5]: 49000 pM
- koff [5]: 0.032 s⁻¹
- Kd [6]: 4000 pM
- koff [6]: 0.0016 s⁻¹

Substance: AMG386
- IC50 (read off the curve) (mAng2 [7]): 2 pM
- IC50 (read off the curve), hAng2 mediated HUVEC survival (hAng2 [8]): 1000 pM
- IC50 (read off the curve) (mAng2 [9]): 9 pM
- IC50 (read off the curve) (hAng2 [10]): 4 pM
- IC50 (read off the curve) (hAng2 [11]): 3 pM
- IC50 (read off the curve) (hAng2 [12]): 1 pM
- IC50 (read off the curve) [13]: 30 pM
- IC50 (read off the curve) [14]: 3 pM
- IC50 (read off the curve) (mAng2 [15]): 5 pM
- IC50 (read off the curve) (hAng2 [16]): 6 pM
- IC50 (read off the curve) (hAng2 [17]): 6 pM
- IC50 (read off the curve) [18]: 4 pM
- IC50 (read off the curve) [19]: 10 pM
- IC50 (read off the curve) (mAng2 [20]): 1 pM
- IC50 (read off the curve) (mAng2 [21]): 6 pM
- IC50 (read off the curve) (hAng2 [22]): 7 pM
- IC50 (read off the curve) (mAng2 [23]): 3 pM
- IC50 (read off the curve) (hAng2 [24]): 2 pM
- IC50 (read off the curve) (hAng2 [25]): 3 pM
- IC50 (read off the curve) (hAng2 [26]): 3 pM

Source: patent US20170247475A1
